According to patent publication US9359622B2, “Method for biotechnological production of dihydrochalcones” (Symrise AG, priority 2012, dated 2016):

How the values were obtained:
[1] = Temperature stability of CHI; type: biochemical
Excerpt: (§1) For the purposes of the present invention especially preferred is the use of a chalcone isomerase, having one, several or all the following characteristics and/or a temperature and pH stability according to Tables 1-3:
(§2) A photometric determination allowed—for further investigation of the CHI activity—the reduction over time in the concentration of naringenin chalcone in a cell-free protein crude extract to be observed.

[2] = Activity measurements for determination of the pH optimum of CHI; type: biochemical
Excerpt: as §1, §2

[3] = substrate: O=C(/C=C/c1ccc(O)cc1)c1c(O)cc(O)cc1O; test: Characterisation of the enzyme activity of the CHI following expression of the vector pET28b_CHI in E. coli; type: biochemical, Eubacterium ramulus DSM 16296; settings: other: CHI expressed from pET28b_CHI in E. coli; substrate not given
Excerpt: Following expression of for example pET28b_CHI in E. coli (see above) CHI can be established both in the soluble and in the insoluble fractions.
Following purification with for example anion exchange chromatography, hydrophobic interaction chromatography, size exclusion chromatography and/or Resource Q purification the CHI can be isolated for characterization (FIG. 5 provides examples of the results of the individual purification steps following expression of the vector pET28b_CHI in E. coli).
The values in the table in Table 6 show (further) results of the chalcone isomerase activity of the expressed CHI, obtained by photometric determination (at 368 nm) in relation to the degradation of naringenin chalcone (to form […]).
as §2

[4] = Activity measurements for determination of the temperature optimum for CHI; type: biochemical
Excerpt: as §1, §2

B1: Eubacterium ramulus DSM 16296 chalcone isomerase (CHI), wild type, SEQ ID NO:3 (Eubacterium ramulus) (protein)
chain: MADFKFEPMRSLIYVDCVSEDYRPKLQRWIYKVHIPDSISQFEPYVTKYAFYPSFPIPPQGDRFGYARMQLTEHHWLVSDLDPRLEIKAIAETFPMDVLVWQGQIPAAAHTDAQIDSDGDAGNAARKSNNAEGNPFIFAFLPMWWEKDLKGKGRTIEDGANYRFNMTIGFPEGVDKAEGEKWLFEKVVPILQAAPECTRVLASAVKKDINGCVMDWVLEIWFENQSGWYKVMVDDMKALEKPSWAQQDAFPFLKPYHNVCSAAVADYTPSNNLANYRGYITMR
[1]; 25° C., 0 h
  Spec. activity: 188.56 U/mg
[1]; 25° C., 0.5 h
  Spec. activity: 136.70 U/mg
[1]; 25° C., 1 h
  Spec. activity: 141.10 U/mg
[1]; 25° C., 2 h
  Spec. activity: 152.08 U/mg
[1]; 25° C., 4 h
  Spec. activity: 152.48 U/mg
[1]; 25° C., 6 h
  Spec. activity: 146.46 U/mg
[1]; 25° C., 24 h
  Spec. activity: 116.37 U/mg
[1]; 30° C., 0 h
  Spec. activity: 188.56 U/mg
[1]; 30° C., 0.5 h
  Spec. activity: 169.66 U/mg
[1]; 30° C., 1 h
  Spec. activity: 158.01 U/mg
[1]; 30° C., 2 h
  Spec. activity: 154.62 U/mg
[1]; 30° C., 4 h
  Spec. activity: 145.77 U/mg
[1]; 30° C., 6 h
  Spec. activity: 147.18 U/mg
[1]; 30° C., 24 h
  Spec. activity: 119.96 U/mg
[1]; 37° C., 0 h
  Spec. activity: 188.56 U/mg
[1]; 37° C., 0.5 h
  Spec. activity: 155.20 U/mg
[1]; 37° C., 1 h
  Spec. activity: 164.39 U/mg
[1]; 37° C., 2 h
  Spec. activity: 156.17 U/mg
[1]; 37° C., 4 h
  Spec. activity: 156.84 U/mg
[1]; 37° C., 6 h
  Spec. activity: 156.21 U/mg
[1]; 37° C., 24 h
  Spec. activity: 93.93 U/mg
[1]; 41° C., 0 h
  Spec. activity: 188.56 U/mg
[1]; 41° C., 0.5 h
  Spec. activity: 151.96 U/mg
[1]; 41° C., 1 h
  Spec. activity: 154.22 U/mg
[1]; 41° C., 2 h
  Spec. activity: 149.12 U/mg
[1]; 41° C., 4 h
  Spec. activity: 146.59 U/mg
[1]; 41° C., 6 h
  Spec. activity: 149.39 U/mg
[1]; 41° C., 24 h
  Spec. activity: 93.30 U/mg
[1]; 44° C., 0 h
  Spec. activity: 188.56 U/mg
[1]; 44° C., 0.5 h
  Spec. activity: 158.12 U/mg
[1]; 44° C., 1 h
  Spec. activity: 150.15 U/mg
[1]; 44° C., 2 h
  Spec. activity: 129.07 U/mg
[1]; 44° C., 4 h
  Spec. activity: 115.07 U/mg
[1]; 44° C., 6 h
  Spec. activity: 83.35 U/mg
[1]; 50° C., 0 h
  Spec. activity: 188.56 U/mg
[1]; 50° C., 0.5 h
  Spec. activity: 50.49 U/mg
[1]; 50° C., 1 h
  Spec. activity: 3.05 U/mg
[1]; 50° C., 2 h
  Spec. activity: 2.35 U/mg
[1]; RT (23° C.), 0 h
  Spec. activity: 188.56 U/mg
[1]; RT (23° C.), 0.5 h
  Spec. activity: 145.67 U/mg
[1]; RT (23° C.), 1 h
  Spec. activity: 148.67 U/mg
[1]; RT (23° C.), 2 h
  Spec. activity: 144.05 U/mg
[1]; RT (23° C.), 4 h
  Spec. activity: 146.39 U/mg
[1]; RT (23° C.), 6 h
  Spec. activity: 141.06 U/mg
[1]; RT (23° C.), 24 h
  Spec. activity: 125.68 U/mg
[2]; pH value 6.13
  Spec. activity: 82.07 U/mg
[2]; pH value 6.35
  Spec. activity: 163.43 U/mg
[2]; pH value 6.4
  Spec. activity: 177.59 U/mg
[2]; pH value 6.55
  Spec. activity: 169.79 U/mg
[2]; pH value 6.8
  Spec. activity: 185.86 U/mg
[2]; pH value 6.93
  Spec. activity: 175.37 U/mg
[2]; pH value 7.12
  Spec. activity: 174.86 U/mg
[2]; pH value 7.45
  Spec. activity: 173.01 U/mg
[2]; pH value 7.7
  Spec. activity: 168.79 U/mg
[2]; pH value 8
  Spec. activity: 152.55 U/mg
[3]
  Km: 36.83 µM
  Vmax: 107 µmol/min/mg
  kcat: 417 s⁻¹
  kcat/Km: 1.13e+07 M⁻¹ s⁻¹
[4]; 30° C.
  Spec. activity: 373.47 U/mg
[4]; 37° C.
  Spec. activity: 795.04 U/mg
[4]; 40° C.
  Spec. activity: 887.73 U/mg
[4]; 45° C.
  Spec. activity: 1133.38 U/mg
[4]; 50° C.
  Spec. activity: 748.66 U/mg
[4]; RT (23° C.)
  Spec. activity: 158.39 U/mg
